Data on 4 substances can be found in paper PMC8488656.

For the experiment, the target named is colicin E7 (ColE7) (UniProt Q47112). Put plainly: ELISA. Background: An ELISA detects its analyte on a solid surface through an enzyme-linked reagent.
Sequence of UniProt Q47112 (Q47112 whole entry): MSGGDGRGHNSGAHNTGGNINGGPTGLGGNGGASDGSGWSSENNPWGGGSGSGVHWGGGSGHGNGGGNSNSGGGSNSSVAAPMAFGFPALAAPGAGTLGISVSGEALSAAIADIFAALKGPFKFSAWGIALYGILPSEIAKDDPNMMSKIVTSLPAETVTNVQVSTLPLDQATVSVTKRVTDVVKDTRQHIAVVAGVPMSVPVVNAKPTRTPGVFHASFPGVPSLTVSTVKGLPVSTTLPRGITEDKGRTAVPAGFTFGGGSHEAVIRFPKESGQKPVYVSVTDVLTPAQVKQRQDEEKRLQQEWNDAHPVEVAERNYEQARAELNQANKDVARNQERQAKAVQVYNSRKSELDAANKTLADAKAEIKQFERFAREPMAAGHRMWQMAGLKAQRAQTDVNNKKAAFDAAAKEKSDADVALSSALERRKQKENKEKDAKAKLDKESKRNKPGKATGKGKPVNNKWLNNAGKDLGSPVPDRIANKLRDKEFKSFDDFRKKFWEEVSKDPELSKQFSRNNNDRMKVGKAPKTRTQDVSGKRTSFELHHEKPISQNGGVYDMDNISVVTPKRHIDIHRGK
“YebF-Im7^N30, glycosylated (from UniProt Q03708 1-87) (natural protein)” yielded an agly/ai (binding activity, glycosylated over aglycosylated variant) of 1.36.
For “YebF-Im7^N31, glycosylated (from UniProt Q03708 1-87) (natural protein)” the value was 0.55.
The result for “YebF-Im7^N49, glycosylated (from UniProt Q03708 1-87) (natural protein)” reads 1.91; that for “YebF-Im7^N58, glycosylated (from UniProt Q03708 1-87) (natural protein)”, 3.44.
